Results: patent US20200087373A1 (UNIVERSITY OF COPENHAGEN, published 2020)
Ends that are not written are not given here. * marks the point of attachment. C18 diacid = O=C(O)CCCCCCCCCCCCCCCCC(=O)*; C16 diacid = O=C(O)CCCCCCCCCCCCCCC(=O)*; Stearoyl = CCCCCCCCCCCCCCCCCC(=O)*; Palmitoyl = CCCCCCCCCCCCCCCC(=O)*; Myristoyl = CCCCCCCCCCCCCC(=O)*; Lauroyl = CCCCCCCCCCCC(=O)*

T1: human GIP receptor (human, UniProt P48546 22-466)
T1 construct: whole, on cells; also called hGIPR
T1 sequence (looked up): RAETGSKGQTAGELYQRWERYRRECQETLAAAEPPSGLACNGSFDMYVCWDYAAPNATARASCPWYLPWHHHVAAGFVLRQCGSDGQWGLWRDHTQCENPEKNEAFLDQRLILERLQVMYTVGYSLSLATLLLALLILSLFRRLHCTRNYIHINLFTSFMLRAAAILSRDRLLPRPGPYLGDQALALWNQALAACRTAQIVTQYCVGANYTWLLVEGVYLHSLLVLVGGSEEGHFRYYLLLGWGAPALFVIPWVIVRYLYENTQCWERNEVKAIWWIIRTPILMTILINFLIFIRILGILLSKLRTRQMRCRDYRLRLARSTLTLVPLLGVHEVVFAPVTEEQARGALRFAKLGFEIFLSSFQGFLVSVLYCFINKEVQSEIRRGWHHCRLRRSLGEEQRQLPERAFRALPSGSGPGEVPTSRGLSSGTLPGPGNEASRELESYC

B1: AT116 [hGIP(3-30)NH2-C12/18] (peptide)
peptide: EGTFISDYSIAMDKIK(Lauroyl)QQDFVNWLLAQK-NH2
modifications: N-terminus assumed
SMILES: CCCCCCCCCCCC(=O)NCCCC[C@H](NC(=O)[C@@H](NC(=O)[C@H](CCCCN)NC(=O)[C@H](CC(=O)O)NC(=O)[C@H](CCSC)NC(=O)[C@H](C)NC(=O)[C@@H](NC(=O)[C@H](CO)NC(=O)[C@H](Cc1ccc(O)cc1)NC(=O)[C@H](CC(=O)O)NC(=O)[C@H](CO)NC(=O)[C@@H](NC(=O)[C@H](Cc1ccccc1)NC(=O)[C@@H](NC(=O)CNC(=O)[C@@H](N)CCC(=O)O)[C@@H](C)O)[C@@H](C)CC)[C@@H](C)CC)[C@@H](C)CC)C(=O)N[C@@H](CCC(N)=O)C(=O)N[C@@H](CCC(N)=O)C(=O)N[C@@H](CC(=O)O)C(=O)N[C@@H](Cc1ccccc1)C(=O)N[C@H](C(=O)N[C@@H](CC(N)=O)C(=O)N[C@@H](Cc1c[nH]c2ccccc12)C(=O)N[C@@H](CC(C)C)C(=O)N[C@@H](CC(C)C)C(=O)N[C@@H](C)C(=O)N[C@@H](CCC(N)=O)C(=O)N[C@@H](CCCCN)C(N)=O)C(C)C
B2: AT117 [hGIP(3-30)NH2[H18K]-C16/18] (peptide)
peptide: EGTFISDYSIAMDKIK(Palmitoyl)QQDFVNWLLAQK-NH2
modifications: N-terminus assumed
SMILES: CCCCCCCCCCCCCCCC(=O)NCCCC[C@H](NC(=O)[C@@H](NC(=O)[C@H](CCCCN)NC(=O)[C@H](CC(=O)O)NC(=O)[C@H](CCSC)NC(=O)[C@H](C)NC(=O)[C@@H](NC(=O)[C@H](CO)NC(=O)[C@H](Cc1ccc(O)cc1)NC(=O)[C@H](CC(=O)O)NC(=O)[C@H](CO)NC(=O)[C@@H](NC(=O)[C@H](Cc1ccccc1)NC(=O)[C@@H](NC(=O)CNC(=O)[C@@H](N)CCC(=O)O)[C@@H](C)O)[C@@H](C)CC)[C@@H](C)CC)[C@@H](C)CC)C(=O)N[C@@H](CCC(N)=O)C(=O)N[C@@H](CCC(N)=O)C(=O)N[C@@H](CC(=O)O)C(=O)N[C@@H](Cc1ccccc1)C(=O)N[C@H](C(=O)N[C@@H](CC(N)=O)C(=O)N[C@@H](Cc1c[nH]c2ccccc12)C(=O)N[C@@H](CC(C)C)C(=O)N[C@@H](CC(C)C)C(=O)N[C@@H](C)C(=O)N[C@@H](CCC(N)=O)C(=O)N[C@@H](CCCCN)C(N)=O)C(C)C
B3: AT119 [hGIP(5-30)NH2-C12/16] (peptide)
peptide: TFISDYSIAMDK(Lauroyl)IHQQDFVNWLLAQK-NH2
modifications: N-terminus assumed
SMILES: CCCCCCCCCCCC(=O)NCCCC[C@H](NC(=O)[C@H](CC(=O)O)NC(=O)[C@H](CCSC)NC(=O)[C@H](C)NC(=O)[C@@H](NC(=O)[C@H](CO)NC(=O)[C@H](Cc1ccc(O)cc1)NC(=O)[C@H](CC(=O)O)NC(=O)[C@H](CO)NC(=O)[C@@H](NC(=O)[C@H](Cc1ccccc1)NC(=O)[C@@H](N)[C@@H](C)O)[C@@H](C)CC)[C@@H](C)CC)C(=O)N[C@H](C(=O)N[C@@H](Cc1c[nH]cn1)C(=O)N[C@@H](CCC(N)=O)C(=O)N[C@@H](CCC(N)=O)C(=O)N[C@@H](CC(=O)O)C(=O)N[C@@H](Cc1ccccc1)C(=O)N[C@H](C(=O)N[C@@H](CC(N)=O)C(=O)N[C@@H](Cc1c[nH]c2ccccc12)C(=O)N[C@@H](CC(C)C)C(=O)N[C@@H](CC(C)C)C(=O)N[C@@H](C)C(=O)N[C@@H](CCC(N)=O)C(=O)N[C@@H](CCCCN)C(N)=O)C(C)C)[C@@H](C)CC
B4: AT121 [hGIP(5-30)NH2-C14/5] (peptide)
peptide: Myristoyl-TFISDYSIAMDKIHQQDFVNWLLAQK-NH2
SMILES: CCCCCCCCCCCCCC(=O)N[C@H](C(=O)N[C@@H](Cc1ccccc1)C(=O)N[C@H](C(=O)N[C@@H](CO)C(=O)N[C@@H](CC(=O)O)C(=O)N[C@@H](Cc1ccc(O)cc1)C(=O)N[C@@H](CO)C(=O)N[C@H](C(=O)N[C@@H](C)C(=O)N[C@@H](CCSC)C(=O)N[C@@H](CC(=O)O)C(=O)N[C@@H](CCCCN)C(=O)N[C@H](C(=O)N[C@@H](Cc1c[nH]cn1)C(=O)N[C@@H](CCC(N)=O)C(=O)N[C@@H](CCC(N)=O)C(=O)N[C@@H](CC(=O)O)C(=O)N[C@@H](Cc1ccccc1)C(=O)N[C@H](C(=O)N[C@@H](CC(N)=O)C(=O)N[C@@H](Cc1c[nH]c2ccccc12)C(=O)N[C@@H](CC(C)C)C(=O)N[C@@H](CC(C)C)C(=O)N[C@@H](C)C(=O)N[C@@H](CCC(N)=O)C(=O)N[C@@H](CCCCN)C(N)=O)C(C)C)[C@@H](C)CC)[C@@H](C)CC)[C@@H](C)CC)[C@@H](C)O
B5: AT141 [hGIP(5-30)NH2-C18diacid/16] (peptide)
peptide: TFISDYSIAMDK(C18 diacid)IHQQDFVNWLLAQK-NH2
modifications: N-terminus assumed
SMILES: CC[C@H](C)[C@H](NC(=O)[C@H](CO)NC(=O)[C@H](Cc1ccc(O)cc1)NC(=O)[C@H](CC(=O)O)NC(=O)[C@H](CO)NC(=O)[C@@H](NC(=O)[C@H](Cc1ccccc1)NC(=O)[C@@H](N)[C@@H](C)O)[C@@H](C)CC)C(=O)N[C@@H](C)C(=O)N[C@@H](CCSC)C(=O)N[C@@H](CC(=O)O)C(=O)N[C@@H](CCCCNC(=O)CCCCCCCCCCCCCCCCC(=O)O)C(=O)N[C@H](C(=O)N[C@@H](Cc1c[nH]cn1)C(=O)N[C@@H](CCC(N)=O)C(=O)N[C@@H](CCC(N)=O)C(=O)N[C@@H](CC(=O)O)C(=O)N[C@@H](Cc1ccccc1)C(=O)N[C@H](C(=O)N[C@@H](CC(N)=O)C(=O)N[C@@H](Cc1c[nH]c2ccccc12)C(=O)N[C@@H](CC(C)C)C(=O)N[C@@H](CC(C)C)C(=O)N[C@@H](C)C(=O)N[C@@H](CCC(N)=O)C(=O)N[C@@H](CCCCN)C(N)=O)C(C)C)[C@@H](C)CC
B6: AT140 [hGIP(5-30)NH2-C16diacid/16] (peptide)
peptide: TFISDYSIAMDK(C16 diacid)IHQQDFVNWLLAQK-NH2
modifications: N-terminus assumed
SMILES: CC[C@H](C)[C@H](NC(=O)[C@H](CO)NC(=O)[C@H](Cc1ccc(O)cc1)NC(=O)[C@H](CC(=O)O)NC(=O)[C@H](CO)NC(=O)[C@@H](NC(=O)[C@H](Cc1ccccc1)NC(=O)[C@@H](N)[C@@H](C)O)[C@@H](C)CC)C(=O)N[C@@H](C)C(=O)N[C@@H](CCSC)C(=O)N[C@@H](CC(=O)O)C(=O)N[C@@H](CCCCNC(=O)CCCCCCCCCCCCCCC(=O)O)C(=O)N[C@H](C(=O)N[C@@H](Cc1c[nH]cn1)C(=O)N[C@@H](CCC(N)=O)C(=O)N[C@@H](CCC(N)=O)C(=O)N[C@@H](CC(=O)O)C(=O)N[C@@H](Cc1ccccc1)C(=O)N[C@H](C(=O)N[C@@H](CC(N)=O)C(=O)N[C@@H](Cc1c[nH]c2ccccc12)C(=O)N[C@@H](CC(C)C)C(=O)N[C@@H](CC(C)C)C(=O)N[C@@H](C)C(=O)N[C@@H](CCC(N)=O)C(=O)N[C@@H](CCCCN)C(N)=O)C(C)C)[C@@H](C)CC

Assays:
[1] = target: T1, human GIP receptor; test: 125I-hGIP competition binding, COS-7/hGIPR, 2% HSA;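 further: nonspecific binding defined as radioligand binding to untransfected cells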
Method: (§1) After incubation, the cells were washed twice in ice-cold binding buffer (+/−2% HSA) and lysed using 200 mM NaOH with 1% SDS for 30 min. Nonspecific binding was determined as the binding of radioactive ligand to untransfected cells.

[2] = target: T1, human GIP receptor; test: IC50 with 2% HSA over IC50 with 0.1% casein, 125I-hGIP competition, COS-7/hGIPR
Method: as §1

[3] = target: T1, human GIP receptor; test: 125I-hGIP competition binding, COS-7 cells expressing hGIPR;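 further: nonspecific binding taken as radioligand bound by untransfected cells, binding buffer with or without 2% HSA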
Method: as §1

[4] = target: T1, human GIP receptor; test: 125I-hGIP competition binding, COS-7/hGIPR, 0.1% casein;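 further: nonspecific binding defined as radioligand binding measured on untransfected cells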
Method: as §1

Binder	IC50 [1] [µM]	logIC50 [1] [log M]	Fold change HSA (2%)/Casein (0.1%) [2] [fold]	IC50 [3] [µM]	log IC50 [3] [log M]	IC50 [4] [µM]	logIC50 [4] [log M]
EGTFISDYSIAMDK(Myristoyl)IHQQDFVNWLLAQK-NH2 [AT111 [hGIP(3-30)NH2-C14/16]]	2.09	-5.7	5.1	0.261	-6.6	0.407	-6.4
B1	0.321	-6.5	5.2	0.0712	-7.1	0.062	-7.2
B2	1.73	-5.8	15.7	0.292	-6.5	0.11	-7
EGTFISDYSIAMDK(Stearoyl)IHQQDFVNWLLAQK-NH2 [AT114 [hGIP(3-30)NH2-C18/16]]	5.46	-5.3	11.2	0.622	-6.2	0.489	-6.3
B3	2.66	-5.6	7.2	0.194	-6.7	0.369	-6.4
B4	0.966	-6	5.7	0.173	-6.8	0.17	-6.8
B5	12.4	-4.9	6.5	1.9	-5.7	1.9	-5.7
B6	3.28	-5.5	1.5	2.16	-5.7	2.16	-5.7
